Test results reported in article doi:10.1101/2022.09.29.510206 (bioRxiv, 2022).

B1: chimaera of Fz4CRD+Fz8_(Connector) (domain or fragment, human | mouse, UniProt Q9ULV1 42-151, looked up)
chain: ERRCDPIRISMCQNLGYNVTKMPNLVGHELQTDAELQLTTFTPLIQYGCSSQLQFFLCSVYVPMCTEKINIPIGPCGGMCLSVKRRCEPVLKEFGFAWPESLNCSKFPPQGNPDTLCMDYNRTDLTTAAPSPPRRLPPP
B2: Fz4_(CRD-Connector) (M105N) mutant (domain or fragment, human, UniProt Q9ULV1 42-179, looked up)
chain: ERRCDPIRISMCQNLGYNVTKMPNLVGHELQTDAELQLTTFTPLIQYGCSSQLQFFLCSVYVPNCTEKINIPIGPCGGMCLSVKRRCEPVLKEFGFAWPESLNCSKFPPQNDHNHMCMEGPGDEEVPLPHKTPIQPGE
modifications: M105N is meant to introduce an N-linked glycosylation site
B3: mouse Fz8_(CRD-Connector), residues 30-170 (domain or fragment, UniProt Q61091 30-170, looked up)
chain: AKELACQEITVPLCKGIGYNYTYMPNQFNHDTQDEAGLEVHQFWPLVEIQCSPDLKFFLCSMYTPICLEDYKKPLPPCRSVCERAKAGCAPLMRQYGFAWPDRMRCDRLPEQGNPDTLCMDYNRTDLTTAAPSPPRRLPPP

The binders below were run against Norrin (Norrie Disease Protein), biotinylated (UniProt Q00604 25-133, biotin (in vivo biotinylation)) (assay: SPR).
Norrin (Norrie Disease Protein), biotinylated, sequence (Q00604 25-133): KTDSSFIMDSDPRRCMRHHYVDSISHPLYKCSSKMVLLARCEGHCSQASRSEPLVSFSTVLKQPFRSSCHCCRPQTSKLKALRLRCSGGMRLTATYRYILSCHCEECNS

| fold weaker affinity than Fz4_(CRD-Connector) [fold] | Binder |
| --- | --- |
| ~15 | B1 |
| ~53 | B2 |
| ~55 | B3 |
